The values below come from patent US20080300206.

The target of this data set is recombinant wild-type human alpha-synuclein.

B1: MET (protein)
chain: KKRKQIKDLGSELVRYDARVHTPHLDRLVSARSVSPTTEMVSNESVDYRATFPEDQFPNSSQNGSCRQVQYPLTDMSPILTSGDSDISSPLLQNTVHIDLSALNPELVQAVQHVVIGPSSLIVHFNEVIGRGHFGCVYHGTLLDNDGKKIHCAVKSLNRITDIGEVSQFLTEGIIMKDFSHPNVLSLLGICLRSEGSPLVVLPYMKHGDLRNFIRNETHNPTVKDLIGFGLQVAKGMKYLASKKFVHRDLAARNCMLDEKFTVKVADFGLARDMYDKEYYSVHNKTGAKLPVKWMALESLQTQKFTTKSDVWSFGVLLWELMTRGAPPYPDVNTFDITVYLLQGRRLLQPEYCPDPLYEVMLKCWHPKAEMRPSFSELVSRISAIFSTFIGEHYVHVNATYVNVKCVAPYPSLLSSEDNADDEVDTRPASFWETS
In the case of B1, the “in vitro kinase reaction, phosphorylation of alpha-synuclein” value is reported as “shown to be incapable of directly phosphorylating alpha-synuclein”.

B2: GRK7 (protein)
chain: MVDMGALDNLIANTAYLQARKPSDCDSKELQRRRRSLALPGLQGCAELRQKLSLNFHSLCEQQPIGRRLFRDFLATVPTFRKAATFLEDVQNWELAEEGPTKDSALQGLVATCASAPAPGNPQPFLSQAVATKCQAATTEEERVAAVTLAKAEAMAFLQEQPFKDFVTSAFYDKFLQWKLFEMQPVSDKYFTEFRVLGKGGFGEVCAVQVKNTGKMYACKKLDKKRLKKKGGEKMALLEKEILEKVSSPFIVSLAYAFESKTHLCLVMSLMNGGDLKFHIYNVGTRGLDMSRVIFYSAQIACGMLHLHELGIVYRDMKPENVLLDDLGNCRLSDLGLAVEMKGGKPITQRAGTNGYMAPEILMEKVSYSYPVDWFAMGCSIYEMVAGRTPFKDYKEKVSKEDLKQRTLQDEVKFQHDNFTEEAKDICRLFLAKKPEQRLGSREKSDDPRKHHFFKTINFPRLEAGLIEPPFVPDPSVVYAKDIAEIDDFSEVRGVEFDDKDKQFFKNFATGAVPIAWQEEIIETGLFEELNDPNRPTGCEEGNSSKSGVCLLL
Turning to B2, the “S129 phosphorylation, immunoblot (11A5)” value is on record as “Prominent signals came from all GRKs except for GRK7”; the “in vitro kinase reaction, phosphorylation of alpha-synuclein at serine 129” value (from here on “in vitro kinase reaction … at serine 129”) is “capable of phosphorylating alpha-synuclein specifically at serine 129 and did not phosphorylate serine 87 in vitro”; the “phosphorylation of AS in vitro” value was “GRK 7 was not able to phosphorylate at appreciable levels”.

B3: G protein-coupled receptor kinase 6 (GRK6) (protein)
chain: MELENIVANTVLLKAREGGGGNRKGKSKKWRQMLQFPHISQCEELRLSLERDYHSLCERQPIGRLLFREFCATRPELSRCVAFLDGVAEYEVTPDDKRKACGRQLTQNFLSHTGPDLIPEVPRQLVTNCTQRLEQGPCKDLFQELTRLTHEYLSVAPFADYLDSIYFNRFLQWKWLERQPVTKNTFRQYRVLGKGGFGEVCACQVRATGKMYACKKLEKKRIKKRKGEAMALNEKQILEKVNSRFVVSLAYAYETKDALCLVLTLMNGGDLKFHIYHMGQAGFPEARAVFYAAEICCGLEDLHRERIVYRDLKPENILLDDHGHIRISDLGLAVHVPEGQTIKGRVGTVGYMAPEVVKNERYTFSPDWWALGCLLYEMIAGQSPFQQRKKKIKREEVERLVKEVPEEYSERFSPQARSLCSQLLCKDPAERLGCRGGSAREVKEHPLFKKLNFKRLGAGMLEPPFKPDPQAIYCKDVLDIEQFSTVKGVELEPTDQDFYQKFATGSVPIPWQNEMVETECFQELNVFGLDGSVPPDLDWKGQPPAPPKKGLLQRLFSRQDCCGNCSDSEEELPTRL
Regarding B3, the “S129 phosphorylation in vitro, normalised by activity units” value was “The most prominent result came from GRK6”; the “S129 phosphorylation, immunoblot (11A5), kinase:AS 1:200 molar” value was “Prominent signals came from GRK6, CKI, CKII and PLK2”; the “S129 phosphorylation, immunoblot (11A5), rank of signal” value (“S129 phosphorylation … of signal” for short) is given as “CKI>GRK6>PLK2>GRK4>GRK5>GRK2”; the “in vitro kinase reaction … at serine 129” value is “capable of phosphorylating alpha-synuclein specifically at serine 129 and did not phosphorylate serine 87 in vitro”. Also, the “phospho ser-129 level in vitro, normalised for molarity” value was “roughly equivalent levels of phospho ser-129 between CKI, GRK6 and PLK2”.

B4: CDC7 cell division cycle 7-like 1 (CDC7L1) (protein)
chain: MEASLGIQMDEPMAFSPQRDRFQAEGSLKKNEQNFKLAGVKKDIEKLYEAVPQLSNVFKIEDKIGEGTFSSVYLATAQLQVGPEEKIALKHLIPTSHPIRIAAELQCLTVAGGQDNVMGVKYCFRKNDHVVIAMPYLEHESFLDILNSLSFQEVREYMLNLFKALKRIHQFGIVHRDVKPSNFLYNRRLKKYALVDFGLAQGTHDTKIELLKFVQSEAQQERCSQNKSHIITGNKIPLSGPVPKELDQQSTTKASVKRPYTNAQIQIKQGKDGKEGSVGLSVQRSVFGERNFNIHSSISHESPAVKLMKQSKTVDVLSRKLATKKKAISTKVMNSAVMRKTASSCPASLTCDCYATDKVCSICLSRRQQVAPRAGTPGFRAPEVLTKCPNQTTAIDMWSAGVIFLSLLSGRYPFYKASDDLTALAQIMTIRGSRETIQAAKTFGKSILCSKEVPAQDLRKLCERLRGMDSSTPKLTSDIQGHASHQPAISEKTDHKASCLVQTPPGQYSGNSFKKGDSNSCEHCFDEYNTNLEGWNEVPDEAYDLLDKLLDLNPASRITAEEALLHPFFKDMSL
For B4, the “in vitro kinase reaction, phosphorylation of alpha-synuclein” value is listed as “shown to be incapable of directly phosphorylating alpha-synuclein”.

B5: PLK4 (protein)
chain: MATCIGEKIEDFKVGNLLGKGSFAGVYRAESIHTGLEVAIKMIDKKAMYKAGMVQRVQNEVKIHCQLKHPSILELYNYFEDSNYVYLVLEMCHNGEMNRYLKNRVKPFSENEARHFMHQIITGMLYLHSHGILHRDLTLSNLLLTRNMNIKIADFGLATQLKMPHEKHYTLCGTPNYISPEIATRSAHGLESDVWSLGCMFYTLLIGRPPFDTDTVKNTLNKVVLADYEMPSFLSIEAKDLIHQLLRRNPADRLSLSSVLDHPFMSRNSSTKSKDLGTVEDSIDSGHATISTAITASSSTSISGSLFDKRRLLIGQPLPNKMTVFPKNKSSTDFSSSGDGNSFYTQWGNQETSNSGRGRVIQDAEERPHSRYLRRAYSSDRSGTSNSQSQAKTYTMERCHSAEMLSVSKRSGGGENEERYSPTDNNANIFNFFKEKTSSSSGSFERPDNNQALSNHLCPGKTPFPFADPTPQTETVQQWFGNLQINAHLRKTTEYDSISPNRDFQGHPDLQKDTSKNAWTDTKVKKNSDASDNAHSVKQQNTMKYMTALHSKPEIIQQECVFGSDPLSEQSKTRGMEPPWGYQNRTLRSITSPLVAHRLKPIRQKTKKAVVSILDSEEVCVELVKEYASQEYVKEVLQISSDGNTITIYYPNGGRGFPLADRPPSPTDNISRYSFDNLPEKYWRKYQYASRFVQLVRSKSPKITYFTRYAKCILMENSPGADFEVWFYDGVKIHKTEDFIQVIEKTGKSYTLKSESEVNSLKEEIKMYMDHANEGHRICLALESIISEEERKTRSAPFFPIIIGRKPGSTSSPKALSPPPSVDSNYPTRERASFNRMVMHSAASPTQAPILNPSMVTNEGLGLTTTASGTDISSNSLKDCLPKSAQLLKSVFVKNVGWATQLTSGAVWVQFNDGSQLVVQAGVSSISYTSPNGQTTRYGENEKLPDYIKQKLQCLSSILLMFSNPTPNFH
On to B5, for which the Fold Change in Percent Synuclein Phosphorylation, HEK-293 overexpression was found to be 1 fold; the “Proportion of total synuclein that is phoshorylated at ser-129, HEK-293 overexpression, ELISA” value was found to be 1.9%; the “in vitro biochemical assay, phosphorylation of synuclein” value is “PLK4 exhibiting no ability to phosphorylate synuclein”.

B6: PLK3 (protein)
chain: MEPAAGFLSPRPFQRAAAAPAPPAGPGPPPSALRGPELEMLAGLPTSDPGRLITDPRSGRTYLKGRLLGKGGFARCYEATDTETGSAYAVKVIPQSRVAKPHQREKILNEIELHRDLQHRHIVRFSHHFEDADNIYIFLELCSRKSLAHIWKARHTLLEPEVRYYLRQILSGLKYLHQRGILHRDLKLGNFFITENMELKVGDFGLAARLEPPEQRKKTICGTPNYVAPEVLLRQGHGPEADVWSLGCVMYTLLCGSPPFETADLKETYRCIKQVHYTLPASLSLPARQLLAAILRASPRDRPSIDQILRHDFFTKGYTPDRLPISSCVTVPDLTPPNPARSLFAKVTKSLFGRKKKSKNHAQERDEVSGLVSGLMRTSVGHQDARPEAPAASGPAPVSLVETAPEDSSPRGTLASSGDGFEEGLTVATVVESALCALRNCIAFMPPAEQNPAPLAQPEPLVWVSKWVDYSNKFGFGYQLSSRRVAVLFNDGTHMALSANRKTVHYNPTSTKHFSFSVGAVPRALQPQLGILRYFASYMEQHLMKGGDLPSVEEVEVPAPPLLLQWVKTDQALLMLFSDGTVQVNFYGDHTKLILSGWEPLLVTFVARNRSACTYLASHLRQLGCSPDLRQRLRYALRLLRDRSPA
As to B6, the Fold Change in Percent Synuclein Phosphorylation, HEK-293 overexpression worked out at 39.6 fold; the “Proportion of total synuclein that is phoshorylated at ser-129, HEK-293 overexpression, ELISA” value was 79.2%; the “in vitro biochemical assay, phosphorylation of synuclein” value was “PLK2 and PLK3 having extremely robust phosphorylation of synuclein”.

B7: GRK2 (protein)
chain: MADLEAVLADVSYLMAMEKSKATPAARASKKILLPEPSIRSVMQKYLEDRGEVTFEKIFSQKLGYLLFRDFCLNHLEEARPLVEFYEEIKKYEKLETEEERVARSREIFDSYIMKELLACSHPFSKSATEHVQGHLGKKQVPPDLFQPYIEEICQNLRGDVFQKFIESDKFTRFCQWKNVELNIHLTMNDFSVHRIIGRGGFGEVYGCRKADTGKMYAMKCLDKKRIKMKQGETLALNERIMLSLVSTGDCPFIVCMSYAFHTPDKLSFILDLMNGGDLHYHLSQHGVFSEADMRFYAAEIILGLEHMHNRFVVYRDLKPANILLDEHGHVRISDLGLACDFSKKKPHASVGTHGYMAPEVLQKGVAYDSSADWFSLGCMLFKLLRGHSPFRQHKTKDKHEIDRMTLTMAVELPDSFSPELRSLLEGLLQRDVNRRLGCLGRGAQEVKESPFFRSLDWQMVFLQKYPPPLIPPRGEVNAADAFDIGSFDEEDTKGIKLLDSDQELYRNFPLTISERWQQEVAETVFDTINAETDRLEARKKAKNKQLGHEEDYALGKDCIMHGYMSKMGNPFLTQWQRRYFYLFPNRLEWRGEGEAPQSLLTMEEIQSVEETQIKERKCLLLKIRGGKQFILQCDSDPELVQWKKELRDAYREAQQLVQRVPKMKNKPRSPVVELSKVPLVQRGSANGL
As for B7, the “S129 phosphorylation … of signal” value is listed as “CKI>GRK6>PLK2>GRK4>GRK5>GRK2”; the “in vitro kinase reaction … at serine 129” value was “capable of phosphorylating alpha-synuclein specifically at serine 129 and did not phosphorylate serine 87 in vitro”.

B8: GRK4 (protein)
chain: MELENIVANSLLLKARQGGYGKKSGRSKKWKEILTLPPVSQCSELRHSIEKDYSSLCDKQPIGRRLFRQFCDTKPTLKRHIEFLDAVAEYEVADDEDRSDCGLSILDRFFNDKLAAPLPEIPPDVVTECRLGLKEENPSKKAFEECTRVAHNYLRGEPFEEYQESSYFSQFLQWKWLERQPVTKNTFRHYRVLGKGGFGEVCACQVRATGKMYACKKLQKKRIKKRKGEAMALNEKRILEKVQSRFVVSLAYAYETKDALCLVLTIMNGGDLKFHIYNLGNPGFDEQRAVFYAAELCCGLEDLQRERIVYRDLKPENILLDDRGHIRISDLGLATEIPEGQRVRGRVGTVGYMAPEVVNNEKYTFSPDWWGLGCLIYEMIQGHSPFKKYKEKVKWEEVDQRIKNDTEEYSEKFSEDAKSICRMLLTKNPSKRLGCRGEGAAGVKQHPVFKDINFRRLEANMLEPPFCPDPHAVYCKDVLDIEQFSVVKGIYLDTADEDFYARFATGCVSIPWQNEMIESGCFKDINKSESEEALPLDLDKNIHTPVSRPNRGFFYRLFRRGGCLTMVPSEKEVEPKQC
B8: the “S129 phosphorylation … of signal” value is on record as “CKI>GRK6>PLK2>GRK4>GRK5>GRK2”.
